Experimental data taken from US6177557, “High affinity ligands of basic fibroblast growth factor and thrombin” (NeXstar Pharmaceuticals, Inc.).

Experiments:
[1] = biological target: T1, basic fibroblast growth factor (bFGF) (UniProt P09038 P09038:135-288); assay: competition; displacement from low-affinity receptor on BHK cells; high-affinity receptor >1 uM; conditions: tags: Bachem California, 18 kDa, 154 aa; 125I-labeled for receptor assays; label: 32P
Protocol: Additionally, modified RNA ligands 21A (SEQ ID NO:104), 38B (SEQ ID NO:114) and Random RNAs were tested.
Receptor Binding Studies. bFGF was labeled with ^125I by the Iodo-Gen (Pierce) procedure as described by Moscatelli (1987) J. Cell. Physiol. 131:123. […] The amount of ^125I-bFGF bound to the low- and the high-affinity receptor sites was determined as described by Moscatelli (1987) supra.

[2] = biological target: T2, vascular endothelial growth factor (VEGF) (UniProt P15692-4 P15692-4:27-191); assay: filter; specificity, data not shown; conditions: chain copies: 2; label: 32P
antithrombin III = antithrombin III (UniProt P01008 P01008:33-464); assay: filter; specificity, data not shown; conditions: label: 32P
thrombin (alpha) [3] = biological target: T3, thrombin (alpha) (human, UniProt P00734;P00734 P00734:328-363,P00734:364-622); assay: filter; specificity, data not shown
acidic FGF = acidic FGF (UniProt P05230 P05230:16-155); assay: filter; specificity, data not shown; conditions: label: 32P
[4] = biological target: T1, basic fibroblast growth factor (bFGF); assay: filter; PBS, 0.01% HSA, 1 mM DTT, 37 C; +/-0.1; conditions: tags: Bachem California, 18 kDa, 154 aa; 125I-labeled for receptor assays
Protocol: (§1) This affinity screening allowed identification of those ligands with highest affinity for bFGF. Binding of a group of these ligands was analyzed over a range of bFGF concentrations (FIG. 5) and their dissociation constants.(Kd's) were determined as described (Jellinek et al. (1993) Proc. Natl. Acad. Sci. USA 90:11227–11231) (Table IX). RNA concentrations were determined from their absorbance reading at […] (and were typically <100 pM). Binding reactions were done at 37° C. in phosphate buffered saline containing 0.01% human serum albumin and 1 mM DTT.

[5] = biological target: T1, basic fibroblast growth factor (bFGF); assay: filter; PBS, 0.01% HSA, 1 mM DTT, 37 C; +/-0.2; conditions: tags: Bachem California, 18 kDa, 154 aa; 125I-labeled for receptor assays
Protocol: as §1

[6] = biological target: T1, basic fibroblast growth factor (bFGF); assay: filter; PBS, 0.01% HSA, 1 mM DTT, 37 C; +/-0.4; conditions: tags: Bachem California, 18 kDa, 154 aa; 125I-labeled for receptor assays
Protocol: as §1

[7] = biological target: T1, basic fibroblast growth factor (bFGF); assay: filter; PBS, 0.01% HSA, 1 mM DTT, 37 C; +/-1.1; conditions: tags: Bachem California, 18 kDa, 154 aa; 125I-labeled for receptor assays
Protocol: as §1

[8] = biological target: T2, vascular endothelial growth factor …; assay: filter; conditions: chain copies: 2; 6-base G-C stem with blunt end
[9] = biological target: human chorionic gonadotropin (human, UniProt P01215;P0DN86 P01215:25-116,P0DN86:21-165); assay: filter; conditions: 6-base G-C stem with blunt end
[10] = biological target: T1, basic fibroblast growth factor (bFGF); assay: filter; conditions: tags: Bachem California, 18 kDa, 154 aa; 125I-labeled for receptor assays; 6-base G-C stem with blunt end
Protocol: In order to eliminate higher order structures, all DNA solutions were heated to 90° C. in PBS for 2–3 minutes and cooled on ice prior to incubation with protein. Relative binding affinity of individual ligands to bFGF cannot be predicted from sequence information. The majority of sequence isolates were therefore screened for their ability to bind to bFGF by measuring the fraction of radiolabeled DNA bound to nitrocellulose filters following incubation with 1 nM protein. […] Binding of these select isolates was then analyzed in more detail.
Those ligands are M225, M19, m234, M235, and D12 (SEQ ID NOS:359, 353, 387, 360, 332). The minimum size of the region necessary for binding was determined to be 35 bases for M225, M19 and D12 (See Truncations, Table XXI M225t3 (SEQ ID NO:364), M19t2 (SEQ ID NO:365), D12t2 (SEQ ID NO:341)). The ligand with the smallest essential sequence, m234, was isolated from Family 2, Experiment 3 and contains 24 nucleotides (m234t2 (SEQ ID NO:391)). The truncated ligands were tested for binding to bFGF. After truncation, ligands M225t3, M19t2, D12t2, M235t2, and m234t2 have kd values of 0.7 nM, 1 nM, 1 nM, 1 nM, and 6 nM respectively (Table XXII). All five of the truncated molecules lost some of their affinity for bFGF in comparison to the full length ligands. The binding affinity is regained when an additional G-C base pair is added to the blunt end stem of M225t3. This molecule is termed M225t3GC (SEQ ID NO:443). The binding of M225t3GC is 0.2 nM compared to 0.7 nM for M225t3 without the additional base pair (Table XXII).

[11] = biological target: T1, basic fibroblast growth factor (bFGF); assay: filter; PEG 3400 conjugate; conditions: tags: Bachem California, 18 kDa, 154 aa; 125I-labeled for receptor assays
thrombin (alpha) [12] = biological target: T3, thrombin (alpha); assay: filter; 100 mM NaCl, 50 mM Tris pH 7.7, 1 mM DTT, 1 mM MgCl2, 37 C
thrombin (alpha) [13] = biological target: T3, thrombin (alpha); assay: filter; ERL thrombin, 1 mM MgCl2, 37 C
thrombin (alpha) [14] = biological target: T3, thrombin (alpha); assay: filter; curve only in figure
thrombin (alpha) [15] = biological target: T3, thrombin (alpha); assay: filter; curve only in figure; ERL thrombin
thrombin (alpha) [16] = biological target: T3, thrombin (alpha); assay: filter; 30% binding at 300 nM tracer is not separately tabulated; curve in figure
[17] = biological target: T1, basic fibroblast growth factor (bFGF); assay: filter; tested for affinity (*), Family 2; no value given; conditions: tags: Bachem California, 154 aa, 18 kDa
[18] = biological target: T1, basic fibroblast growth factor (bFGF); assay: filter; tested for affinity (*), Family 3; no value given; conditions: tags: Bachem California, 154 aa, 18 kDa
[19] = biological target: T1, basic fibroblast growth factor (bFGF); assay: filter; tested for affinity (*), Family 5; no value given; conditions: tags: Bachem California, 154 aa, 18 kDa

T1 sequence (P09038 135-288, one chain of several): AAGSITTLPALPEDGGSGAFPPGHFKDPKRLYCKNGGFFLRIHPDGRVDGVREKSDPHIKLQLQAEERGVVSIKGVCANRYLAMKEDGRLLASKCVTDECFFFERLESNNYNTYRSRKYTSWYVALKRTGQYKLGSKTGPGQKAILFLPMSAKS
T2 sequence (P15692 other isoform, or with tags, fused parts or gaps): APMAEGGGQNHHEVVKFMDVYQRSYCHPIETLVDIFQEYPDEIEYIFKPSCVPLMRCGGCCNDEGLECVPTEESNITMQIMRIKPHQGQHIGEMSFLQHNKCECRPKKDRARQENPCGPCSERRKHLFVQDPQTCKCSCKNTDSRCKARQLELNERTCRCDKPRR
Sequence of antithrombin III (P01008 33-464, one chain of several): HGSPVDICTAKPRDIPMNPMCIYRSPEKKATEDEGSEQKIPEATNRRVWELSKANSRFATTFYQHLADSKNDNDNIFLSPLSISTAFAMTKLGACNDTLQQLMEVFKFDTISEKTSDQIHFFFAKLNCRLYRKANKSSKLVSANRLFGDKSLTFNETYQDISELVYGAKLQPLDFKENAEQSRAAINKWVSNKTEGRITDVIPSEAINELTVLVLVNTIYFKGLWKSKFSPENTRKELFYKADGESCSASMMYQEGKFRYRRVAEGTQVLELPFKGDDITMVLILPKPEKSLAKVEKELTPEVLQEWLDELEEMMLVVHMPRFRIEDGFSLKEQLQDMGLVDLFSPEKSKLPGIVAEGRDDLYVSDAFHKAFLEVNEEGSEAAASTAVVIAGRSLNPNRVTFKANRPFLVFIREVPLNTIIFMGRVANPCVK
Sequence of human chorionic gonadotropin (P01215 25-116, chain 1 of 2, other chains not shown): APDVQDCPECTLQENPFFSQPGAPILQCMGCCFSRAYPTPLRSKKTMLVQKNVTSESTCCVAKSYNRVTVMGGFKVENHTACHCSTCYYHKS
Sequence of acidic FGF (P05230 16-155, one chain of several): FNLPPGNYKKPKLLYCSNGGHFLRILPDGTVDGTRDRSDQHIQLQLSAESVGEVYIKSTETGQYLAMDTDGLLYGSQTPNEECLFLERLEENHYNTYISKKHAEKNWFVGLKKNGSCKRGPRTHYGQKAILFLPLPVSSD

B1: 12A (ssRNA)
RNA: GGGAGCUCAGAAUAAACGCUCAAGGGGCAACGCUACAGACAAGUGCACCCAACUUCGACAUGAGGCCCGGAUCCGGC
Binder B1 has an IC50 [1] of over 100 nM, a Kd [2] of over 300 nM and a Kd (antithrombin III) of over 300 nM. The Kd (thrombin (alpha) [3]) was over 300 nM and the Kd (acidic FGF) was over 300 nM.

B2: 2'-NH2 21A (ssRNA)
RNA: GGGAGACAAGAAUAACGCUCAAGUAGACUAAUGUGUGGAAGACAGCGGGUGGUUCGACAGGAGGCUCACAACAGGC
modifications: 2'-NH2 pyrimidines
B2 gave a Kd [4] of 1.3 nM.

B3: 2'-NH2 59A (ssRNA)
RNA: GGGAGACAAGAAUAACGCUCAAUGUGUGGAAGGGUACCUGAGUGGGGAUGGGUUCGACAGGAGGCUCACAACAGGC
modifications: 2'-NH2 pyrimidines
Work on B3 yielded a Kd [5] of 1.2 nM.

B4: 2'-NH2 34B (ssRNA)
RNA: GGGAGGACGAUGCGGAACGGGAGGUACGAGAGCGGGAGCGCAUAAAUAGGAAACUCCUUGCACGUCAGACGACUCGCCCGA
modifications: 2'-NH2 pyrimidines
B4 showed a Kd [6] of 2 nM.

B5: 2'-NH2 48B (ssRNA)
RNA: GGGAGGACGAUGCGGCAGGAUAGGAUGGGGUCGGAACCGUGUAUCAUAACGAGUCAUCUCCUGGUCAGACGACUCGCCCGA
modifications: 2'-NH2 pyrimidines
Work on B5 yielded a Kd [7] of 6.7 nM.

Work on GCGGGGCTACGTACCGGGGCTTTGTAAAACCCCGC (ssDNA) [M225t3] yielded a Kd [8] of over 200 nM, a Kd [9] of over 200 nM and a Kd [10] of 0.7 nM.

Work on GCGGGGCTACGTACCGGGGCTTTGTAAAACCCCGC (ssDNA, PEG 3400 on 3' amino linker) [PEG-M225t3] yielded a Kd [11] of 1 nM.

B6: thrombin Class I RNA 16 (ssRNA)
RNA: AGAUGCCUGUCGAGCAUGCUGCAUCCGGAUCGAAGUUAGUAGGCCGAGGUGGUAGCUAAACAGCUUUGUCGACGGG
B6 was tested, and the Kd (thrombin (alpha) [12]) was about 30 nM.

B7: thrombin Class II RNA 27 (ssRNA)
RNA: AGAUGCCUGUCGAGCAUGCUGGUGCGGCUUUGGGCGCCGUGCUUGACGUAGCUAAACAGCUUUGUCGACGGG
In the case of B7, the Kd (thrombin (alpha) [12]) is reported as about 60 nM.

GGTTGGTGTGGTTGG (ssDNA) [G15D] gave a Kd (thrombin (alpha) [13]) of about 200 nM.

B8: thrombin Class I RNA 6 (ssRNA)
RNA: AGAUGCCUGUCGAGCAUGCUGAGGAUCGAAGUUAGUAGGCUUUGUGUGCUCGUAGCUAAACAGCUUUGUCGACGGG
B8: binds (thrombin (alpha) [14]).

B9: thrombin Class I RNA 18 (ssRNA)
RNA: AGAUGCCUGUCGAGCAUGCUGAUUGUUGCGGAUCGAAGUGAGUAGGCGCUAGUAGCUAAACAGCUUUGUCGACGGG
B9: binds (thrombin (alpha) [14]).

CCGGAUCGAAGUUAGUAGGCCGAG (ssRNA) [24R (Class I clone 16 hairpin)]: binds (thrombin (alpha) [15]).

GAGCAUGCUGGUGCGGCUUUGGGCGCCGUGCUU (ssRNA) [33R (Class II clone 27 hairpin)]: binds (thrombin (alpha) [16]).

B10: d44 (ssDNA)
DNA: ATCCGCCTGATTAGCGATACTGACCACGACTGATGCGTCGCCTCCCGATAGGCAGTTACCCACTTGAGCAAAATCACCTGCAGGGG
B10: binds [17].

B11: d46 (ssDNA)
DNA: ATCCGCCTGATTAGCGATACTAACACGGTCTGCTGCGACCCCTCGTACTAACGGTACCAGTACTTGAGCAAAATCACCTGCAGGGG
B11: binds [17].

B12: m219 (ssDNA)
DNA: GGGAGGACGATGCGGGCAGCGACCGCGGTACAAGGCATAGGGTACAGACGACGACGGGGA
B12: binds [18].

B13: d1 (ssDNA)
DNA: ATCCGCCTGATTAGCGATACTACACCCAACCCCCTAAGATTTTAGAGCAACTCGGCGCAACACTTGAGCAAAATCACCTGCAGGGG
B13: binds [19].

B14: d9 (ssDNA)
DNA: ATCCGCCTGATTAGCGATACTCGAAGAGTAGGAGGCGATCCGCTCCGTATCAGGTCACATAGGACTTGAGCAAAATCACCTGCAGGGG
B14: binds [19].
